Patent US20220096653A1, “CONJUGATE COMPRISING LIGAND AND CEACAM5 ANTIBODY FAB FRAGMENT” (ASTELLAS PHARMA INC., priority 2019, published 2022)

T1: CEACAM5 (R&D Systems, 4128-CM-050) (human, UniProt P06731 35-685)
T1 construct: Immobilised on the ELISA plate; also called human CEACAM5
T1 sequence (looked up): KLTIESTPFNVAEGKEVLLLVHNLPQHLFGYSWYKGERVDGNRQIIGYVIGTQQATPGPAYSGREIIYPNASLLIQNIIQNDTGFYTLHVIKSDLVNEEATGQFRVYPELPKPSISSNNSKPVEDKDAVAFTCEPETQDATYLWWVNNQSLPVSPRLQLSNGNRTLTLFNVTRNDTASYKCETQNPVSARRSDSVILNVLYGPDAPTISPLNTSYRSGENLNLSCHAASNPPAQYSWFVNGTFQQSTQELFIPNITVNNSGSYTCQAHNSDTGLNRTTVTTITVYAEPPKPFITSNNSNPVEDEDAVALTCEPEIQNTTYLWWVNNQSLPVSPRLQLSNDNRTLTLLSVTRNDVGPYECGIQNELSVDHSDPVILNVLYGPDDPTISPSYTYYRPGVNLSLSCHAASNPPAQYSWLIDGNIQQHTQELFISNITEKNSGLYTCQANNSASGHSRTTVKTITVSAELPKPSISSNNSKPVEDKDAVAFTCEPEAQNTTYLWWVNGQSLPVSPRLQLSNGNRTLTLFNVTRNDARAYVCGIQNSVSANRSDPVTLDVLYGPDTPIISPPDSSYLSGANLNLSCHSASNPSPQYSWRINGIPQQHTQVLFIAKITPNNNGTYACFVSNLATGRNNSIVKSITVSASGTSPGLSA


biological target: T1, CEACAM5 (R&D Systems, 4128-CM-050); test: ELISA on immobilised CEACAM5, 4-parameter fit, duplicate
Method: Each anti-human CEACAM5 antibody Fab fragment conjugate prepared in Example 2 was subjected to ELISA to evaluate the binding activity thereof to CEACAM5. In the present test, a phosphate buffer (Nacalai Tesque Inc., 0.1 mol/L-Phosphate Buffer Solution (pH 7.2)) prepared to 10 mM by diluting 10-fold with distilled water was used as a solvent for an antigen immobilization liquid, and 20×PBS/Tween 20 Buffer (Thermo Fisher Scientific Inc., 28352) diluted 20-fold with distilled water was used as a wash liquid. In addition, for bovine serum albumin (BSA) used in the present test, 30% Bovine Serum Albumin solution (Sigma-Aldrich, Inc., A9576-50ML) was added in an appropriate proportion for use. CEACAM5 (R&D Systems, 4128-CM-050) was diluted with a 10 mM phosphate buffer (pH 7.2) to 0.1 μg/mL, and added to a Nunc MaxiSorp White 384 plate (Nunc, 4603272) at 30 μL per well, and the plate was incubated overnight at 4° C. for immobilization. The CEACAM5 immobilization liquid was removed by reverse centrifugation, and then blocking was carried out by adding a PBS/Tween 20 buffer containing 5.0% BSA. Thereafter, the blocking solution was removed by reverse centrifugation, a solution of each CEACAM5 antibody Fab² fragment conjugate described above or a Fab² fragment having no labeling portion (PB009-01) as a control at about 10000 ng/mL was diluted in 14 steps by 3-fold dilution using a PBS/Tween 20 buffer containing 1.0% BSA, and 30 μL was added per well and incubated at room temperature for 60 minutes. The plate was washed 3 times with a PBS/Tween 20 buffer, and Horseradish Peroxidase (HRP)-labeled goat anti-human IgG (H+L chain) antibody (MBL Life Sciences, 206) diluted 1000-fold using a PBS/Tween 20 buffer containing 5.0% BSA was added at 30 μL per well and incubated at room temperature for 30 minutes. The plate was washed 3 times with a PBS/Tween 20 buffer, and ECL Prime Western Blotting DETECTION Reagent (GE Healthcare, RPN2232) as a substrate was added at 30 μL per well. The substrate was incubated at room temperature for 15 minutes, and then a signal value thereof was measured using an Envision counter (PerkinElmer, Inc.).
The test for each antibody was carried out in duplicate, and an EC₅₀ value was calculated using a 4-parameter logistic curve model.

Row | Binder | EC50
1 | [Gd/DOTA-NH-(CH2CH2O)3-CH2-C(═O)-NH-CH2-(1,3-Ph)-C(═O)-Met-Gly-Lys*-Z2(#N)]p-Fab^2 (Fab, V domains shown, labeling may sit on this chain; sites not stated; labeling portion (MW 1278) on amino groups of the Fab, sites and chain not stated; 1-2 per Fab by MS, also called Ex-No 29; Conjugate No. 29) VH: EVQLVESGGGLVQPGGSLRLSCAASGFNIRDTYMHWVRQAPGKGLEWVARIDPANGNSRYVPKFQGRFTISADTSRNTAYLQMNSLRAEDTAVYYCAPFGYYVSDYAMAYWGQGTLVTVSS VL: DIQLTQSPSSLSASVGDRVTITCRAGESVDIFGVGFLHWYQQKPGKAPKLLIYRASNLESGIPSRFSGSGSRTDFTLTISSLQPEDFATYYCQQTNEDPYTFGQGTKVEIKR | 0.3 nM
2 | (Y-S1-X)p-Fab^2 with Y Gd/DOTA, S1 - (bond), X -Gly-(diph-Ala)-Lys*-Z2(#S)- (Fab, V domains shown, labeling may sit on this chain; sites not stated; labeling portion (MW 1149) on amino groups of the Fab, sites and chain not stated; 1-3 per Fab by MS, also called Ex-No 30; conjugate 30) VH: EVQLVESGGGLVQPGGSLRLSCAASGFNIRDTYMHWVRQAPGKGLEWVARIDPANGNSRYVPKFQGRFTISADTSRNTAYLQMNSLRAEDTAVYYCAPFGYYVSDYAMAYWGQGTLVTVSS VL: DIQLTQSPSSLSASVGDRVTITCRAGESVDIFGVGFLHWYQQKPGKAPKLLIYRASNLESGIPSRFSGSGSRTDFTLTISSLQPEDFATYYCQQTNEDPYTFGQGTKVEIKR | 0.31 nM
3 | (Y-S1-X)p-Fab^2 with Y Gd/DOTA, S1 - (bond), X -Gly-(naph-Ala)-Lys*-Z2(#S)- (Fab, V domains shown, labeling may sit on this chain; sites not stated; labeling portion (MW 1123) on amino groups of the Fab, sites and chain not stated; 1-2 per Fab by MS, also called Ex-No 31; conjugate 31) VH: EVQLVESGGGLVQPGGSLRLSCAASGFNIRDTYMHWVRQAPGKGLEWVARIDPANGNSRYVPKFQGRFTISADTSRNTAYLQMNSLRAEDTAVYYCAPFGYYVSDYAMAYWGQGTLVTVSS VL: DIQLTQSPSSLSASVGDRVTITCRAGESVDIFGVGFLHWYQQKPGKAPKLLIYRASNLESGIPSRFSGSGSRTDFTLTISSLQPEDFATYYCQQTNEDPYTFGQGTKVEIKR | 0.3 nM
4 | (Y-S1-X)p-Fab^2 with Y Gd/DOTA, S1 spacer (e), X -Met-Gly-Lys*-Z2(#N)- (Fab, V domains shown, labeling may sit on this chain; sites not stated; labeling portion (MW 1095) on amino groups of the Fab, sites and chain not stated; 1-2 per Fab by MS, also called Ex-No 32; conjugate 32) VH: EVQLVESGGGLVQPGGSLRLSCAASGFNIRDTYMHWVRQAPGKGLEWVARIDPANGNSRYVPKFQGRFTISADTSRNTAYLQMNSLRAEDTAVYYCAPFGYYVSDYAMAYWGQGTLVTVSS VL: DIQLTQSPSSLSASVGDRVTITCRAGESVDIFGVGFLHWYQQKPGKAPKLLIYRASNLESGIPSRFSGSGSRTDFTLTISSLQPEDFATYYCQQTNEDPYTFGQGTKVEIKR | 0.37 nM
5 | [Gd/DOTA-[2,5-(1,2,3,4-tetrahydroisoquinoline)]-C(═O)-Met-Gly-Lys*-Z2(#N)]p-Fab^2 (Fab, V domains shown, labeling may sit on this chain; sites not stated; labeling portion (MW 1115) on amino groups of the Fab, sites and chain not stated; 1-2 per Fab by MS, also called Ex-No 33; Conjugate No. 33) VH: EVQLVESGGGLVQPGGSLRLSCAASGFNIRDTYMHWVRQAPGKGLEWVARIDPANGNSRYVPKFQGRFTISADTSRNTAYLQMNSLRAEDTAVYYCAPFGYYVSDYAMAYWGQGTLVTVSS VL: DIQLTQSPSSLSASVGDRVTITCRAGESVDIFGVGFLHWYQQKPGKAPKLLIYRASNLESGIPSRFSGSGSRTDFTLTISSLQPEDFATYYCQQTNEDPYTFGQGTKVEIKR | 0.33 nM
6 | (Y-S1-X)p-Fab^2 with Y Gd/DOTA, S1 given only as drawing CHEM-US-00151, X -Met-Gly-Lys*-Z2(#N)- (Fab, V domains shown, labeling may sit on this chain; sites not stated; labeling portion (MW 1101) on amino groups of the Fab, sites and chain not stated; 1-2 per Fab by MS, also called Ex-No 34; conjugate 34) VH: EVQLVESGGGLVQPGGSLRLSCAASGFNIRDTYMHWVRQAPGKGLEWVARIDPANGNSRYVPKFQGRFTISADTSRNTAYLQMNSLRAEDTAVYYCAPFGYYVSDYAMAYWGQGTLVTVSS VL: DIQLTQSPSSLSASVGDRVTITCRAGESVDIFGVGFLHWYQQKPGKAPKLLIYRASNLESGIPSRFSGSGSRTDFTLTISSLQPEDFATYYCQQTNEDPYTFGQGTKVEIKR | 0.38 nM
7 | [Gd/DOTA-NH-(CH2CH2O)3-CH2-C(═O)-NH-CH2-(1,3-Ph)-C(═O)-Met-Gly-Lys*-Z2(#S)]p-Fab^2 (Fab, V domains shown, labeling may sit on this chain; sites not stated; labeling portion (MW 1380) bound via 2-iminothiolane-treated amino groups of the Fab, sites and chain not stated; 1 per Fab by MS, also called Ex-No 35; Conjugate No. 35) VH: EVQLVESGGGLVQPGGSLRLSCAASGFNIRDTYMHWVRQAPGKGLEWVARIDPANGNSRYVPKFQGRFTISADTSRNTAYLQMNSLRAEDTAVYYCAPFGYYVSDYAMAYWGQGTLVTVSS VL: DIQLTQSPSSLSASVGDRVTITCRAGESVDIFGVGFLHWYQQKPGKAPKLLIYRASNLESGIPSRFSGSGSRTDFTLTISSLQPEDFATYYCQQTNEDPYTFGQGTKVEIKR | 0.43 nM
8 | (Y-S1-X)p-Fab^2 with Y Gd/DOTA, S1 -NH-(CH2)3-C(═O)-, X -Gly-Tyr*-CH2-C(═O)-NH-(CH2)2-Z1(#N)- (Fab, V domains shown, labeling may sit on this chain; sites not stated; labeling portion (MW 1045) on amino groups of the Fab, sites and chain not stated; 1-3 per Fab by MS, also called Ex-No 36; conjugate 36) VH: EVQLVESGGGLVQPGGSLRLSCAASGFNIRDTYMHWVRQAPGKGLEWVARIDPANGNSRYVPKFQGRFTISADTSRNTAYLQMNSLRAEDTAVYYCAPFGYYVSDYAMAYWGQGTLVTVSS VL: DIQLTQSPSSLSASVGDRVTITCRAGESVDIFGVGFLHWYQQKPGKAPKLLIYRASNLESGIPSRFSGSGSRTDFTLTISSLQPEDFATYYCQQTNEDPYTFGQGTKVEIKR | 0.38 nM
